Assay results published in the DeepSol protein solubility set.

Test: soluble on expression in E. coli; label from the status in PepcDB or PDB records

Sequence	soluble on expression in E. coli
MAHHHHHHMSSSVQNHQQTLLQARTHVAARDTTAVAILGAKAGSNGSSQSFRPAAQCLEHTQSSFNQTDISQRPPFIASEAATVSLLRRMEVLDNGRAGSTSDNAAANVVPSHQSVQRQRVTAHTLNKTTLANNDVTGEAPKPPSMAESTLKAGAQRRRIVKSNRNAVASRGPSESLKKCGPAVNVNDDGHRNDSAMAMNVPTQITVAARGGARGRVFHSNPFVTRNGKRFSAQNARRGISTATLSPPHTAITVSDDYSADFSVHDAFDVLSPMTPANPTYQKTLQVQQQQQWHSGSWIYDLNAGANTDSFTDDGSPIEFVVEDFELDDTVLGGTKHNDFGGQASKGGPDRFSTAAASNPDRLRQQNHARWAASRGPTRGATLASGTTATQQAGGARHLTTKSTMGSDPAGPDSPSGVLKERARLAKGVKLHNGPPMIKIPPLALDVINANRKTGKASYKVSHPKPGVVVPDIESSSTECSDMPNNSSLQGNFEALGVKVSNSPLGGRGSIEGRGNDKRVGGVHNGSLLSGSAVDGHRAGAAGSSAYKGSLQNCGRHGMLSMPFDGTSNDSQVHEASPSRNAREGFRGNSGGFGMHGGPFGSVQRQRWLVEADKHSSGESRPPMTNARKKAKCCVVM	not soluble
MNKKHYLLYGSERYALAILRPLQAAIRARGDEAAWFFDGPGAEDLAADEQLLSVAQVRLWKPYAVITSSNAVPHFFPGVKVEVFHGFNAGKPRHVYSRGFFDLYCTTGPRDTAAFGELADRLGHFAVKQTGWPKIDPFMGEMSQALVPVRQPPVILYHSTFSPSWSAADILYDEIKRLSLRGEWRWIVTFHPKMNPDVVARYRALQSEHLCFSDNDNILELFPHVDMMCSDTSSALNEFLLTCKPVVTFKNRNPGPQLIDIDDPAQFESAIRRALSRPPELLSAIRAYADAIHPYWDGRSSERVLEAIDAFVAEGGRNRRTKPLNLWRKFKLRKRIGYWGPAWL	not soluble
FMFKHIIARTPARSLVDGLTSSHLGKPDYAKALEQHNAYIRALQTCDVDITLLPPDERFPDSVFVEDPVLCTSRCAIITRPGAESRRGETEIIEETVQRFYPGKVERIEAPGTVEAGDIMMVGDHFYIGESARTNAEGARQMIAILEKHGLSGSVVRLEKVLHLKTGLAYLEHNNLLAAGEFVSKPEFQDFNIIEIPEEESYAANCIWVNERVIMPAGYPRTREKIARLGYRVIEVDTSEYRKIDGGVSSMSLRF	soluble
MTGSQKLILTGRPFLHHQGIINQVSTVTKVIHHELEVAASADDIWTVYSWPGLAKHLPDLLPGAFEKLEIIGDGGVGTILDMTFVPGEFPHEYKEKFILVDNEHRLKKVQMIEGGYLDLGVTYYMDTIHVVPTGKDSCVIKSSTEYHVKPEFVKIVEPLITTGPLAAMADAISKLVLEHKSKSNSDEIEAAIITVHHHHHH	soluble
MEESLKVGIAGLGTVGSSVVRILREKANSLTCQCGRSIKVVAVSARDKSRNRGIDLSDVKWFDSPVEMASSDEIDVFVELIGGESDVVYAAVKKALETGHHVVTANKALLAQHGGRLAVSAEKKGVFLHFEAAVAGGIPIIKVMRESLVSNHISRIYGILNGTCNYILTRMFTEGLSFKECLEDAQRLGYAEVDPTFDIGGNDTAHKLALLTSLAFGTAVSLDDIYVEGISNISQIDIRAADELGYRIKLLGVALKTETGIEQRVHPTMVPTSSMIAQIHGVTNALSIQSDLLGELLLSGPGAGGTATASAVIGDLADIAKARPGFQYAPVLGRPALGLAPHKKARISHHAGGYFIRLNVHDRAGVFAAVAKHMAGNHISLESIVQRSFVESQSVKTIILITHETTEVNVQQALAAIEKDGHLVAKSQFIRIEPMVLEHHHHHH	not soluble
MGSDKIHHHHHHLKAIKYGVTREHIREFKVALTDGKVYKFGSKSVKSSSGYSLNDLIIGSEGTLGVITEAVLRLYPRPKHALNAIIPFPTLDDAIESVPAILASGVEYMGRKVLNLWEKYYDATFPIKEGDGFIILGIDSFTASDAEAQLAQALEAVKPFHALKETVLNAESDEAKTIWDAREKLLLAIQKSTPKMDEVDVSVPINKIPLVLHRIEELEKEEDMRIPNFGHAGDGNLHIYLCSDDMTDEEFAKKGDNVISELYKTAKSVDGNMSGEHGVGYARQNYYEDFYGKDYTDLLRKVKGLFDPKGILNPDKIFPLD	not soluble
MGSDKIHHHHHHMLDSYIKRIVIHQFSPNDTELLLSDRLVSITPRIDEYFRKKLAKVFSDEAKRGQFEANNTFFTTIGDDLLETSVTIAQLWKEAFVISEDQKTNDLVFVQFDKDGEPFFAFLRIALKEQFAHLSDNYEHPFTVTQNNLPSPTQTPDEALVINLKSGQYYLIEKRVKHNGSFANYFSEHLLKVTPEQSVKKSIKMIEQTAQKIAEHFNQDDFTFQSKMKSTLFKQLEADDVLSPEKLADQLFDDNLTARLTFVDQVKDVIPEPIKISDIEHSRQIKKLENQKLSLSNGIELTVPNAIYQDAEAVEFLLNDDGTYSILIKNIEDIKTK	not soluble
GMTTNTIMEQEARTAPQKIAEQLLANDAITESLGSVLREFKPKFVMIVGRGSSDHAGVFAKYLFEIEASIPTFAAAPSVASVYGKTLKLAGGLVIVISQSGRSPDILAQARMAKNAGAFCVALVNDETAPIKDIVDVVIPLRAGEEKAVAATKSYLATLSALLQVAAKWTQNESLVEAVNSLPQALQAAVDAEPQLRAGSLTDVKNLVVLGRGFGYAVSKEIALKLKEVCAIHAEAFSSAEFLHGPVTLVEKKLSILDVCIRDESYGSHVEQIANVKQRGANLIHLHQTSADIHPRIAPLALLQRFYIDVAAVAIALGINPDKPAGLKKVTQTL	soluble
MSLLKCSICINDERITRILIVDGRPICKECKVFLEHPPDKEKIKKELEEILSKVDKAIVAYSGGKDSIVALYLAKEKYSIDVEAVMVDHGFIAPQAIKNAKNVAKYLDVPLTIIKRDYSDIFREALLKAKSPCRKCSRRTMEILRKYALKKGYRYMITGHELPFGHHPYRLMSGGIIQVRILSLMSEEERMKILKKLPVELPELPGYTSNCLILGPALQRFWERHGYSFEHRRIAALVRYGLLNKEKALKKVQKPEVPQWQWELVKKKLKLEDGFEGHHHHHH	soluble
MKYMIGVDIGTTSTKSVLYDENGTFIMKHQIGYDLHTPNVDVSEENPDELFDAVLMTIKYVMRESKVNKDDIKFVSFSAQMHSLIAMDQQHQRLTNNITWADNRAAKYATVINEVHDGNAIYQRTGTPIHPMSPLAKIFWMKHEWQDVFQRTAKFADIKTYIFYHLFDTYIIDYSMASATGMFNLETLDWDVEALELLGISKEMLPELVPTTYVMKGMKERYATLMGLNKDTPFVIGASDGVLSNLGVNSVGKGEVAVTIGTSGAIRTVIDKPRTDYKGRIFCYVLTEDHYVIGGPVNNGGVVLRWLRDELLASEVETAKRLGVDPYDVLTQIAKRVKPGADGLIFHPYLAGERAPLWNANARGSFFGLTLSHKKEHMIRAALEGVLYNLYTVYLALIEVMNETPKMIKATGGFAKSEVWRQMMSDIFDTELVVPESYESSCLGACVLGLKAVGDIEDFSIVSSMVGATNNHTPIEENVTVYQEIVSIFINLSRSLTENYEQIADFQRQHIAENKTQ	not soluble
MVSTYDEIEIEDMTFEPENQMFTYPCPCGDRFQIYLDDMFEGEKVAVCPSCSLMIDVVFDKEDLAEYYEEAGIHPPEPIAAAA	soluble
MQLYVVLCFLVLLGLSAGQMTFTDQWTKKRATLHKQLPVVTPEEPICPSDRVQAVFEQLDQLQKAQQRLTEYLASCAYPVEVPQKAEKM	not soluble
MSLALFYGRKITVAGISKRGSETALEISEKLSEKGLAVKCYSRSNLKGCNTYIGSTQNFVLSEVRKSDVLVLVMSLGGAVRIIEKASILKEEGIAVIVVDDYGRYAIPIVNGHSGSANVFARLISELIGSEYIITDAVELNGLMSVEEMSRRLYCTIANPECVLKINTALANGDPVFARNESSKRKHAFEMIKYPWKTYSRSDDAKIIITDRPGEGGEICYLVPDDISVGIGFTGKADPYNIKKRIEEVLLSLGLGYDDVNCVSSLRYNKFLSELIKDNGTEFRTFSADDLKSVDVSLLSHISEEAEEKLGIPGSAEPSALLSLGPGSRIIYPFTKFDHSMTISVASRREGHHHHHH	soluble
MGSDKIHHHHHHMWCRNLTVRYPDQDRDVLNDLTVSLRQGETTLLIGPSGSGKTTFLHTLAGLMPETIEAEVTGEWRADGTVGMLFQQPDDQFCMQTVGAEIAFSLENRSIPRDEMEERIRTVLKRVGLDLALTTQIAGLSGGMKQRLALACVLALEPDILLLDEPTAQLDPHGRRLMMELIEELHHNPNVTLVLIEHQLEECVTFADRVLVFREGQLRLDGSPLDVFEEKREDLTRHGIMCPLLYPYTLETIPLTIATARFLDGPPVARRPVANETTLDLTDVTIAHGKRMILDQISLTASAGEWIMLVGRNGAGKSTLLETLAKLLPAQSGTIKLFQTPLKKWRDRTFYRQVGFVFQQPEFQFLKQTVADELAISSPSPARSQVADALQHYRLEDVAAQSPLALSLGQKRRLSVATMLLERKAVLLLDEPTFGQDAETTAQILDVLHQAREAGTTLIMVTHDMELVYRYADRVVVIGEKHVQFDGAPDELFRNESLLEHNQLIRPVSVRYQQLEEVKHRAGKQFVARTP	not soluble
MRILLSNDDGVHAPGIQTLAKALREFADVQVVAPDRNRSGASNSLTLESSLRTFTFDNGDIAVQMGTPTDCVYLGVNALMRPRPDIVVSGINAGPNLGDDVIYSGTVAAAMEGRHLGFPALAVSLNGYQHYDTAAAVTCALLRGLSREPLRTGRILNVNVPDLPLAQVKGIRVTRCGSRHPADKVIPQEDPRGNTLYWIGPPGDKYDAGPDTDFAAVDEGYVSVTPLHVDLTAHSAHDVVSDWLDSVGVGTQW	not soluble
MGSDKIHHHHHHMTTIHVSDLSKTYGTDTNVPVLSGVSFDLTSPAIHGLIGANGVGKTTLLRILAGQSRCEGVVEVDGQPAFDNPEVMDRCVLMGIDVPLPSTWRGTKLLSFAQHRYPRWDEARCAQLIDAFQVPVDKPYQSLSRGQKSALGIIIAFSATCDITLLDEPYLGLDVANRDLFYRELRAEQARCPRLIILSTHHINEASHVFDSVMVLKKDGVALQGDVESITGRVVELVGPKATIEGFVSHPARRIGEVHTAGGVAKVLAEARAEEWDQLSALGLRTHEVSLERAVMFLECD	not soluble
MTSSQLVKMRLELRRGVLVLAVLGLLKQPHYGYSLRKQLQDGGIDIDEGTLYPLVRRLAEQGLLDSEWRQAEGRERRYYQLSSSGAELLSQLTEEWQQLNGALAFLLGQVTDENAEEN	not soluble
MGSDKIHHHHHHMYIQIVFAVKGRNSLIHPSWENELHKYMTGFIQNNGQKLLAINGMPDHIHILIGMKPSCCLSDLIRELKKSSSSFIKDKKLSPYAFQWQEGYGAFSYSHSNLNQVIAYIMNQKEHHKKRTFKEEYLEFIQKFELEYNPKNLFEWMD	not soluble
MAHHHHHHMRQTGSFQPFFLRGKVVHGKGRGGSQLGFPTANIGLDKDVMECLQPYKNLVVYGWGTVSQVPGKERESFGPYPFAASIGFNMQFDEKTLTVEPYFLHEFGWDFYGAVVKIIVLGEIRSMGSFHSLQALVDTIKSDVQFTRDMLQKPQLQEFSRHSLFESPSSTIPYFEDLPDE	soluble
MGSDKIHHHHHHMSGGSSMTDQGWAMKGELVLSCNCTVFCPCVLSLGNHAPTEGYCQTWAGFRIDAGHFGEVDLSGLNLGLIMEIPGYMSRGNWTAGLFIDKRASIYAVKALTKIFTGKAGGTTSLLSILVGKFLPITYETRDKMRIFQIPKIIDGAVTPIAGKDREKDTVITNSEYWIAPEIIVARSDKSKMRAFGRNWNFAGRSAEICKLDWRGP	not soluble
ALEGTEFARAQLSEAMTLASGLKTKVSDIFSQDGSCPANTAATAGIEKDTDINGKYVAKVTTGGTAAASGGCTIVATMKASDVATPLRGKTLTLTLGNADKGSYTWACTSNADNKYLPKTCQTATTTTP	soluble
